Experimental data published in patent US20030186877A1 (BRIGHAM AND WOMEN S HOSPITAL, published 2003).
Square brackets hold non-standard residues; d marks the D form. * marks the point of attachment. dBpa = N[C@H](Cc1ccc(C(=O)c2ccccc2)cc1)C(=O)O; Boc = CC(C)(C)OC(=O)*; Aib = CC(C)(N)C(=O)O

Molecular target: γ-secretase
Experiment: cell-based or functional assay

Binder | IC50 in the same cell-based assay using CHO cells stably transfected with human APP (production of total Aβ) [µM] | IC50 of blocking Aβ production in APP-transfected cells [µM]
Boc-[dV]G[Aib][dV][dV][dBpa][Aib][dThr(OBz)][dV][Aib]-OMe [Boc-D-Val-Gly-Aib-D-Val-D-Val-D-BPA-Aib-D-Thr(OBz)-D-Val-Aib-OMe] | 0.1 | –
Boc-[Aib]AL[Aib]AL[Aib]AL[Aib]-OMe (SMILES COC(=O)C(C)(C)NC(=O)[C@H](CC(C)C)NC(=O)[C@H](C)NC(=O)C(C)(C)NC(=O)[C@H](CC(C)C)NC(=O)[C@H](C)NC(=O)C(C)(C)NC(=O)[C@H](CC(C)C)NC(=O)[C@H](C)NC(=O)C(C)(C)NC(=O)OC(C)(C)C) [Boc-Aib-Ala-Leu-Aib-Ala-Leu-Aib-Ala-Leu-Aib-O-methylester] | – | 2

Molecular target: γ-secretase
Experiment: cell-based or functional assay
Remark: another data set of the same source

Binder | IC50: concentration of compound that reduced production of total Aβ by 50% in a cell-based assay using CHO cells stably transfected with human APP [µM]
Boc-A[Thr(OBz)][Aib]IV[Aib]-OMe [Boc-Ala-Thr(OBz)-Aib-Ile-Val-Aib-OMe] | 25
Boc-[Aib]IA[Thr(OBz)][Aib]IV[Aib]-OMe [Boc-Aib-Ile-Ala-Thr(OBz)-Aib-Ile-Val-Aib-OMe] | 10
Boc-[Aib]VVI[Aib][Thr(OBz)]V[Aib]-OMe [Boc-Aib-Val-Val-Ile-Aib-Thr(OBz)-Val-Aib-OMe] | 6
Boc-G[Aib]VVI[Aib][Thr(OBz)]V[Aib]-OMe [Boc-Gly-Aib-Val-Val-Ile-Aib-Thr(OBz)-Val-Aib-OMe] | 3

Next, values leading:

IC50: concentration of compound that reduced production of total Aβ by 50% in a cell-based assay using CHO cells stably transfected with human APP [µM] | Binder
3 | Boc-VG[Aib]VVI[Aib][Thr(OBz)]V[Aib]-OMe [Boc-Val-Gly-Aib-Val-Val-Ile-Aib-Thr(OBz)-Val-Aib-OMe]
15 | Boc-IA[Thr(OBz)][Aib]IV[Aib]-OMe [Boc-Ile-Ala-Thr(OBz)-Aib-Ile-Val-Aib-OMe]
2 | Boc-V[Aib]IA[Thr(OBz)][Aib]IV[Aib]-OMe [Boc-Val-Aib-Ile-Ala-Thr(OBz)-Aib-Ile-Val-Aib-OMe]
5 | Boc-GV[Aib]IA[Thr(OBz)][Aib]IV[Aib]-OMe [Boc-Gly-Val-Aib-Ile-Ala-Thr(OBz)-Aib-Ile-Val-Aib-OMe]
12 | Boc-VI[Aib][Thr(OBz)]V[Aib]-OMe [Boc-Val-Ile-Aib-Thr(OBz)-Val-Aib-OMe]
6 | Boc-VVI[Aib][Thr(OBz)]V[Aib]-OMe [Boc-Val-Val-Ile-Aib-Thr(OBz)-Val-Aib-OMe]
